In publication doi:10.1101/2021.04.07.438849 (bioRxiv, 2021):

Target: T1, NTD of the SARS-CoV-2 spike protein (SARS-CoV-2 Wuhan-Hu-1, UniProt P0DTC2)
T1 construct: also called N-terminal domain
Test: ELISA
Conditions: both partners purified

B1: 8–131 (antibody, V domains shown)
VH: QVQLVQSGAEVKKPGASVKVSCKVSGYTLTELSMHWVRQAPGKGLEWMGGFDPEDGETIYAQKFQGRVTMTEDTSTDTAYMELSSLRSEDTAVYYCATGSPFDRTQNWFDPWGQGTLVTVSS
VL: QSVVTQPPSVSAAPGQKVTISCSGSRSNIGNNYVSWYQQLPGTAPKLLIYDYDKRPSGIPDRFSGSKSGTSATLGITGLQTGDEADYYCGTWDNSLSAGVFGGGTRLTVL
binding result: binds
